Tests used:
[1] = molecular target: T1, Rad4-Rad23 WT (no thrombin cleavage) (UniProt P14736;P32628 101-632;1-77+230-398, internal_change); assay: competitive EMSA; apparent Ks; 1000 nM cold CH7_NX competitor; EMSA: 5 mM BTP-HCl pH 6.8, 75 mM NaCl, 5 mM DTT, 5% glycerol, 0.74 mM CHAPS, 500 ug/ml BSA, room temperature 20 min, 5 nM labeled DNA, 1000 nM cold CH7_NX; settings: protein: recombinant; tags: N-terminal His tag on Rad4; copies: 1;1; label: 32P; 3-bp CCC/CCC mismatch; 5' overhang 1 nt at both ends
T1 sequence 1: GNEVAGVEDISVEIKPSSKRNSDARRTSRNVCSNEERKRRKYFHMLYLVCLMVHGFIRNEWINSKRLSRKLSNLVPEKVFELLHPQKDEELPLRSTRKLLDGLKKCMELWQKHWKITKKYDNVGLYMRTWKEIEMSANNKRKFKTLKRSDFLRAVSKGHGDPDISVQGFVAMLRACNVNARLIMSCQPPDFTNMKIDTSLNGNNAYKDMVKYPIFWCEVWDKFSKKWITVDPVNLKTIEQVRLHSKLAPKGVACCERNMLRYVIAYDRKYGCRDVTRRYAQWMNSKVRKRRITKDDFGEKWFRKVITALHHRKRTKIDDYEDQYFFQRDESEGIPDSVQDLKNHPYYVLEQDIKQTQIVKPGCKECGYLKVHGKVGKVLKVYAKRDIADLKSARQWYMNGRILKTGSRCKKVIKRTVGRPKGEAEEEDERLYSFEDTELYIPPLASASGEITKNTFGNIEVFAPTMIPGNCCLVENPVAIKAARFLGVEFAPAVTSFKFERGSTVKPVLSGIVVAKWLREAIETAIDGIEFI
T1 sequence 2: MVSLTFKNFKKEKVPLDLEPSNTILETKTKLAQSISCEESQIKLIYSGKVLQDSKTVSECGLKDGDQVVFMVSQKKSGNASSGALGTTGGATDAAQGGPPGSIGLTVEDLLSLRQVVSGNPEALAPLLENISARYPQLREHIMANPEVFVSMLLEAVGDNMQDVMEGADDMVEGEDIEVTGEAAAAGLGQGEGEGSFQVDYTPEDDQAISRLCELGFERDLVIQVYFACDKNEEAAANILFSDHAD

[2] = molecular target: T2, Rad4-Rad23 delta-beta-hairpin3 (<137>) (UniProt P14736;P32628 101-598+606-632;1-77+230-398, internal_change;internal_change); assay: as above; settings: protein: recombinant; tags: N-terminal His tag on Rad4; copies: 1;1; label: 32P; 3-bp CCC/CCC mismatch; 5' overhang 1 nt at both ends
T2 sequence 1: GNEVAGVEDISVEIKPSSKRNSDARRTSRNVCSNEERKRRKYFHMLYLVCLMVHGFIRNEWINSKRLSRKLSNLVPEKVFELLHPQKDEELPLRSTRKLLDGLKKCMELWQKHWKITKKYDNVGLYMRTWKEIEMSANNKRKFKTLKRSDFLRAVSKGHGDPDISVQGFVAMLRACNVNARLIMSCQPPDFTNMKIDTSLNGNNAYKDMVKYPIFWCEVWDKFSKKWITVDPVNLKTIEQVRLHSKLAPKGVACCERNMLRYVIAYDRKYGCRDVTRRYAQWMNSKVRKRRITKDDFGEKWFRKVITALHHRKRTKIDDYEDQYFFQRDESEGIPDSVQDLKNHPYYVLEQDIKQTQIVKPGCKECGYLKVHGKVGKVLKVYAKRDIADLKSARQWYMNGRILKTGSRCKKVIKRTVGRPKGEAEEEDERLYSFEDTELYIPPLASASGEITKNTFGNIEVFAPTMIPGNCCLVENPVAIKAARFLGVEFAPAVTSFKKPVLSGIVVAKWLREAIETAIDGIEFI
T2 sequence 2: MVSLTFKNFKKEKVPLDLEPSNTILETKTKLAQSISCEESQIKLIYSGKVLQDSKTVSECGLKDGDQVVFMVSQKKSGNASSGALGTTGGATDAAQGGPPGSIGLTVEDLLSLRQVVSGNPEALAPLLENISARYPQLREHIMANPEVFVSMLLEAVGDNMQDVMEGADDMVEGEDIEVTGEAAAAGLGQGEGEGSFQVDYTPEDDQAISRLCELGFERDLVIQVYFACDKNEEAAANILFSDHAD

[3] = molecular target: T3, Rad4-Rad23 delta-beta-hairpin2 (<130>) (UniProt P14736;P32628 101-514+528-632;1-77+230-398, internal_change;internal_change); assay: as above; settings: protein: recombinant; tags: N-terminal His tag on Rad4; copies: 1;1; label: 32P; 3-bp CCC/CCC mismatch; 5' overhang 1 nt at both ends
T3 sequence 1: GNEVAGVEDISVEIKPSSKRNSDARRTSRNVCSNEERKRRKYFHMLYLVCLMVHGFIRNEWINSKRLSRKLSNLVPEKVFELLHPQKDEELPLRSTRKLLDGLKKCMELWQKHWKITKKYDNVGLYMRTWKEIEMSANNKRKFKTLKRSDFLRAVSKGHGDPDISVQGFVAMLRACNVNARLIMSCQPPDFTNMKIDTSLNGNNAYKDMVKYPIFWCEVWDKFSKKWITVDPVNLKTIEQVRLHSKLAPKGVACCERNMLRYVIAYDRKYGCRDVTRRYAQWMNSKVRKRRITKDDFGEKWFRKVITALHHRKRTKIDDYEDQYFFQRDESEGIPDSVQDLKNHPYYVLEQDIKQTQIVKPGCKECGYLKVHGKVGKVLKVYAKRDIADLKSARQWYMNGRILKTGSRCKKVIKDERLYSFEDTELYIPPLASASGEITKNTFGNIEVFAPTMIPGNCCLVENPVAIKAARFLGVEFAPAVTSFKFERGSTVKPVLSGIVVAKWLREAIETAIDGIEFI
T3 sequence 2: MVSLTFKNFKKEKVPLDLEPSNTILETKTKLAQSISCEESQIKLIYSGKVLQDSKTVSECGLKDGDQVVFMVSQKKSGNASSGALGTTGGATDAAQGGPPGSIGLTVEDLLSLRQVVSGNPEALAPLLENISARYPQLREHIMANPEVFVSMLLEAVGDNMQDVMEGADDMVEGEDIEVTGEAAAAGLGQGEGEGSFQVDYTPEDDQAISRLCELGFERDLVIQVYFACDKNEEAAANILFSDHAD

[4] = molecular target: T4, Rad4-Rad23 WT crosslinkable (<SC32>) (UniProt P14736;P32628 101-632;1-77+230-398, V131C;C132S;internal_change); assay: fluorescence lifetime FRET; non-covalent, equimolar; EMSA: 5 mM BTP-HCl pH 6.8, 75 mM NaCl, 5 mM DTT, 5% glycerol, 0.74 mM CHAPS, 500 ug/ml BSA, room temperature 20 min, 5 nM labeled DNA, 1000 nM cold CH7_NX; settings: protein: recombinant; tags: N-terminal His tag on Rad4 (fluorescence); copies: 1;1; label: tCo donor, tCnitro acceptor; 3-bp CCC/CCC mismatch
T4 sequence 1: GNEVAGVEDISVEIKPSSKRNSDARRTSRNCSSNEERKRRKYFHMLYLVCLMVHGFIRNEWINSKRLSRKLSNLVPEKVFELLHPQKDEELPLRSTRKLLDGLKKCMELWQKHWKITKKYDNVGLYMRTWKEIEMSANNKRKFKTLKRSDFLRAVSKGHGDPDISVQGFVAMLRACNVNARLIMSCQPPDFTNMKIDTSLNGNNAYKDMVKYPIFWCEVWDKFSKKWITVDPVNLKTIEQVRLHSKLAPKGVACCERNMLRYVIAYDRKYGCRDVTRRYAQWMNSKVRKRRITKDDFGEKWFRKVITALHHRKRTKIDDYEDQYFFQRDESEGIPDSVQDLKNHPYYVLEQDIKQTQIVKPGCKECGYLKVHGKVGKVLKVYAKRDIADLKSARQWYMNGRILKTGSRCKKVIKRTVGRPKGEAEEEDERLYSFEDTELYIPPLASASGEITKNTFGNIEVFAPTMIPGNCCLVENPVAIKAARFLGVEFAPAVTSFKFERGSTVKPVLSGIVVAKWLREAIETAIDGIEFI
T4 sequence 2: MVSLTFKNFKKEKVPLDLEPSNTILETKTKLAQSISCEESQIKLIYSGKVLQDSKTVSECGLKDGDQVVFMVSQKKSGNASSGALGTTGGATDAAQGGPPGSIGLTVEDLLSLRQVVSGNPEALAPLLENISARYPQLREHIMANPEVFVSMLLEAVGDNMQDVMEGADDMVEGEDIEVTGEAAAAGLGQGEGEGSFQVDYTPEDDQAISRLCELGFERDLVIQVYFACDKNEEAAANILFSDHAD

[5] = molecular target: T1, Rad4-Rad23 WT (no thrombin cleavage); assay: competitive EMSA; apparent Kns; 1000 nM cold CH7_NX competitor; EMSA: 5 mM BTP-HCl pH 6.8, 75 mM NaCl, 5 mM DTT, 5% glycerol, 0.74 mM CHAPS, 500 ug/ml BSA, room temperature 20 min, 5 nM labeled DNA, 1000 nM cold CH7_NX; settings: protein: recombinant; tags: N-terminal His tag on Rad4; copies: 1;1; label: 32P; fully matched; 5' overhang 1 nt at both ends
[6] = molecular target: T2, Rad4-Rad23 delta-beta-hairpin3 (<137>); assay: as above; settings: protein: recombinant; tags: N-terminal His tag on Rad4; copies: 1;1; label: 32P; fully matched; 5' overhang 1 nt at both ends
[7] = molecular target: T3, Rad4-Rad23 delta-beta-hairpin2 (<130>); assay: as above; settings: protein: recombinant; tags: N-terminal His tag on Rad4; copies: 1;1; label: 32P; fully matched; 5' overhang 1 nt at both ends

B1: CCC/CCC mismatched (CH10_NX) (dsDNA)
DNA 1: TTGACTCGACATCCCCCGCTACAA
DNA 2: ATTGTAGCCCCGGATGTCGAGTCA
For B1, the Kd [1] was about 60 nM, the Kd [2] was about 200 nM and the Kd [3] was about 260 nM.

B2: CCC/CCC_G*_DA (dsDNA)
DNA 1: TTGACTCGACATCCCCCGGTACAA
DNA 2: ATTGTACCCCCGGATGTCGAGTCA
modifications: disulfide-modified guanine G* in top strand
B2: binds [4].

B3: CCC/GGG matched (dsDNA)
DNA 1: TTGACTCGACATCCCCCGCTACAA
DNA 2: ATTGTAGCGGGGGATGTCGAGTCA
B3 showed a Kd [5] of about 370 nM, a Kd [6] of about 510 nM and a Kd [7] of about 700 nM.

From PMC7708039, “Tethering-facilitated DNA ‘opening’ and complementary roles of β-hairpin motifs in the Rad4/XPC DNA damage sensor protein”
